These are literature values, as cited in PMC3359799.

Like-named read-outs stand apart in the source and are kept apart here.

In data set [1] the target is GLP-1 (Homo sapiens) (UniProt P01275).
For data set [2], the target named is Exendin-4 (Heloderma suspectum) (UniProt P26349).
The target is the same in data set [3]. The source holds these as a separate data set.
The target is the same in data set [4]. Kind of data set: surface plasmon resonance. A general note: In SPR one partner is held on a chip, and binding of the other changes the refractive index at the surface.
The target in data set [5] is GLP-1 (Homo sapiens) (UniProt P01275). The source holds these as a separate data set.
Data set [6] shares this target. The source holds these as a separate data set.

UniProt P01275, sequence (P01275 98-127): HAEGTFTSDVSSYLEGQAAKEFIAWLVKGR
UniProt P26349, sequence (P26349 48-86): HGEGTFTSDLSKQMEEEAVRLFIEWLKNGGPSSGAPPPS

By Kd is commonly meant the constant that tells how readily two partners part at equilibrium. As to GLP-1 receptor (from UniProt P43220), the Kd was 0.0003 µM with GLP-1 (Homo sapiens) [1] and 0.0001 µM in data set [2].
Turning to “GLP-1 receptor ECD (from UniProt P43220)”, the Kd in data set [3] was 0.013 µM; in data set [4] it was 0.9 µM; with GLP-1 (Homo sapiens) [5], 1 µM; with GLP-1 (Homo sapiens) [6] it was 0.8 µM.
